Assay results taken from patent US6645501B2, “Anti-pathogen system and methods of use thereof” (Washington University, priority 1997, dated 2003).
Entries after “also recorded” stand apart in the source; their conditions may differ.

Key:
[1] = tested on: Jurkat T cells; assay: FACS and confocal analysis of FITC-labeled TAT fusion proteins added to Jurkat T cells; type: cell-based
Protocol: To test the ability of TAT-Casp3 proteins to transduce into cells, TAT-Casp3 proteins were conjugated to fluorescein (FITC), then added directly to the media of Jurkat T cells and analyzed by Flow Cytometry (FACS) (FIGS. 9B-C). Both TAT-Casp3WT and TAT-Casp3MUT proteins rancidly transduced into ˜100% of cells, achieving maximum intracellular concentration in less than 20 min. In addition, based on the narrow peak width before and after addition of FITC labeled proteins, individual cells within the population contain near identical intracellular concentrations of TAT-Casp3-FITC protein. […] Thus, TAT-Casp3 proteins readily transduce into 100% of all cells inca rapid and concentration-dependent fashion.
The generation and transduction of TAT fusion proteins shown in FIGS. 9A-E are explained in more detail as follows: FIG. 9A. Diagram depicting HIV cleavage site sequences and domains of TAT fusion proteins. FIGS. 9B-D. FACS kinetic analysis of fluorescein (FITC) labeled TAT-Casp3WT, TAT-Casp3MUT and TAT-HIV Pr proteins added to cells at 0, 20 and 30 min. FIG. 9E. FACS dose analysis of 3, 6, and 12 nM TAT-Casp3WT-FITC protein added to cells at I hr post-addition. Note rapid, concentration-dependent transduction of all FITC labeled protein into ˜100% of cells and near identical intracellular concentration within the population as measured by FACS peak width of control vs. transduced cells.
(§1) 1. […] See Lissy, N. A., et al. (supra). […] See Ezhevsky, S. A., et al. (supra). […] See Xiang, J., et al., (supra). […] See Xiang, J., et al., (supra). […] See Ezhevsky, S. A., et al. (supra).

[2] = tested on: Jurkat T cells; assay: Cytotoxicity of TAT-Casp3 on uninfected Jurkat T cells, viability by Trypan Blue exclusion; details: co-transduced with TAT-HIV Pr
Protocol: In addition, the ability of TAT-Casp3 protein to induce apoptosis in cells co-transduced with TAT-HIV Pr protein was tested. Jurkat T cells were treated with 100 nM TAT-Casp3WT or TATCasp3MUT proteins alone or in combination with 50 nM TAT-HIV Pr protein and assayed for cell viability 16 hr post-treatment (FIG. 11A). […] See Salvensen, G. S., et al., Henkart, P. A., Cohen, G. M., Woo, M., et al., Enari, M. et al., Liu, X., et al. (supra).
FIG. 11A Cultures of Jurkat T cells were transduced with combinations of TAT-Casp3WT (WT), TAT-Casp3MUT (MUT) and TAT-HIV Protease (Pr) proteins for 16 hr and analyzed for cell viability. […] FIG. 11B Cultures of Jurkat T cells were co-transduced with TAT-Casp3WT (WT), TAT-Casp3MUT (MUT) proteins in combination with TAT-HIV Pr (Pr) protein and analyzed for kinetics of cell viability as indicated.
1. Cell culture-p16(−) Jurkat T cells (ATCC) were grown as described. See Lissy, N. A., et al. (supra). For in vivo substrate cleavage, 1×10^6 cells were transduced with 100 nM TAT-p16, TAT-A-p16, TAT-Casp3MUT and/or 50 nM TAT-HIV Pr proteins for 1, 5 or 8 hr as indicated and analyzed by anti-p16 (Santa Cruz) or anti-Casp3 (Pharmingen) immunoblot analysis. See Ezhevsky, S. A., et al. (supra). For cytotoxicity of TAT-Casp3 on uninfected cells, 1×10^6 cells were transduced with 100 nM TAT-Casp3WT, TAT-Casp3MUT and/or 50 nM TAT-HIV Pr proteins for 16 hr and assayed for viability by Trypan Blue exclusion and/or genomic DNA damage by TUNEL assay (Trevigen). Number of TUNEL positive cells reported as per high-powered microscopic field with four fields per experiment averaged. TAT-Casp3 activity was measured by incubation of 20 μg of whole cell lysate with 50 μM DEVD-AFC and fluorescent AFC formation measured on a FL500 microplate fluorescence reader (Bio-Tek) as described. See Xiang, J., et al., (supra). Cells were preincubated with 1 μg/ml Ritonavir (Abbott Labs) for 1 hr prior to transduction. For cytotoxicity of TAT-Casp3 on infected cells, Jurkat cultures were infected with 100 ng p24 Ag equivalent NLHX HIV-I strain for 7-14 days, assayed microscopically for cytopathic effects, then replated at 1×10^6/ml and transduced with 100 nM of TAT-Casp3WT or TAT-Casp3MUT proteins for 16 hr followed by exclusionary dye viability analysis. Infected cells were pretreated with 1 μg/ml Ritonavir for 24 hr prior to transduction with TAT-Casp3WT protein. See Xiang, J., et al., (supra). For Flow Cytometry (FACS) analysis, fluorescein (FITC) conjugated TAT fusion proteins were added to Jurkat T cell culture media and 1×10^4 cells were analyzed by FACS as described. See Ezhevsky, S. A., et al. (supra).

[3] = tested on: Jurkat T cells; assay: TUNEL assay for degraded genomic DNA in transduced Jurkat T cells; type: cell-based
Protocol: (§2) Additionally, transduced cultures were tested for degraded genomic DNA by TUNEL assay. See Coates, P. J., Molecular methods for the identification of apoptosis in tissues. J. Histotechnology 17: 261 (1994). […] Activation of TAT-Casp3 was also assayed by its ability to cleave an artificial Caspase-3 substrate. […] See Xiang, J., et al., Bax-induced cell death may not require interleukin 1B-converting enzyme-like proteases. Proc. Natl. Acad. Sci. USA 93: 14550 (1996).
(§3) The HIV Protease activates TAT-Casp3WT protein shown in FIGS. 12A-B are explained in more detail as follows. FIG. 12A. […] Abscissa: TUNEL positive cells per high-powered microscopic field; Ctrl, control addition of PBS to cultures; error bars represent SD. FIG. 12B. […] Ctrl, control PBS addition; ocFAS crosslinking, positive control.
as §1

[4] = tested on: caspase-3 activity (DEVD-AFC cleavage); assay: Caspase-3 enzyme assay, cleavage of DEVD-AFC by whole cell lysate of transduced Jurkat T cells; type: cell-based; details: 6 hr
Protocol: as §2, §3, §1

[5] = tested on: Jurkat T cells infected with the NLHX strain of HIV-I; assay: Cytotoxicity of TAT-Casp3 on HIV infected Jurkat cultures, exclusionary dye viability analysis; type: cell-based
Description: To make this determination, Jurkat T cells were infected for 7-14 days with the NLHX strain of HIV-I and examined microscopically for HIV cytopathic effects. See Westervelt, P., et al., Identification of a determinant within the HIV-1 surface envelope glycoprotein critical for productive infection of cultured primary monocytes. Proc. Natl. Acad. Sci USA 88: 3097 (1991). At the start of each transduction experiment approximately 50% of the culture was HIV positive. HIV infected cultures were transduced for 16 hr with 100 nM TAT-Casp3WT or TATCasp3MUT protein and then assayed for cell viability (FIG. 13). […] In addition, we detected both the appearance of cells containing <2N DNA content and cells with condensed nuclei in TAT-Casp3 treated cells.
To determine if TAT-Casp3WT induced apoptosis was dependent on active HIV Protease in the infected cultures, HIV infected cultures were pretreated with 1 μg/ml Ritonavir prior to transduction with 100 nM TAT-Casp3WT protein (FIG. 5). […] In addition, the observed increased survival of Ritonavir treated cells is consistent with increased longevity of protease inhibitor treated HIV infected cells. See Coffin, J. M., et al. (supra).
The specific killing of HIV infected cells shown in FIG. 5 is explained in more detail as follows. Jurkat T cells were infected for 7-14 days with HIV strain NLHX, then transduced with TAT-Casp3WT (WT) or TAT-Casp3MUT (MUT) proteins for 16 hr and assayed for cell viability. […] Ctrl, control addition of PBS to cultures; abscissa, % viability of HIV positive cells in the population at start of transduction; error bars represent SD.
as §1

B1: TAT-Casp3WT: TAT-D site-p17-A site-p12 modified Caspase-3 fusion protein, Pro domain replaced by TAT transduction domain (protein)
chain: GRKKRRQRRRGYPYDVPDYACTERQANFLGKIWPGISLDNSYKMDYPEMGLCIIINNKNFHKSTGMTSRSGTDVDAANLRETFRNLKYEVRNKNDLTREEIVELMRDVSKEDHSKRSSFVCVLLSHGEEGIIFGTNGPVDLKKITNFFRGDRCRSLTGKPKLFIIQACRGTELDCGIETSQVSQNYPIVQNLQGVDDDMACHKIPVEADFLYAYSTAPGYYSWRNSKDGSWFIQSLCAMLKQYADKLEFMHILTRVNRKVATEFESFSFDATFHAKKQIPCIVSMLTKELYFYH
modifications: left off: small tags and cut ends
notes: TAT-D site-p17-A site-p12 modified Caspase-3 fusion protein, Pro domain replaced by TAT transduction domain
[1]; 3, 6 and 12 nM, 1 hr post-addition, at equilibrium
  dose analysis of protein transduction: concentration-dependency
[1]; FITC-labeled protein
  intracellular localisation by confocal microscopy: both cytoplasmic and nuclear compartments
[1]; FITC-labeled protein added to media of Jurkat T cells
  cells transduced: ~100%
[2]
  appearance of cells containing <2N DNA content: detected
  earliest detection of cellular death post-transduction: 4 h
  kinetic analysis of cell death (shape of curve): linear killing curve
[3]; 100 nM TAT-Casp3 or 50 nM TAT-HIV Pr
  TUNEL positive cells, protein transduced alone: only background levels; also recorded: remained at background levels
[3]; 100 nM plus 50 nM TAT-HIV Pr
  TUNEL positive cells, co-transduced with TAT-HIV Pr: marked increase; also recorded: specific TUNEL positive cells
[4]; 100 nM plus 50 nM TAT-HIV Pr
  caspase activity, co-transduced with TAT-HIV Pr: marked increase in caspase activity that was greater than αFAS treatment; also recorded: specific activation of caspase-3 activity
[4]
  caspase activity, protein transduced alone: only background levels
[5]; 100 nM, 16 hr, cultures approximately 50% HIV positive
  effect on viability of HIV positive cells: dramatic loss of HIV positive cells; also recorded: efficiently kills a large percentage of HIV positive cells
[5]; HIV infected cultures
  appearance of cells containing <2N DNA content and cells with condensed nuclei: detected
